This is an account of results in patent publication US9482669B2, “Crystal structure of the NanR and ManNAc-6P complex, and uses thereof” (priority 2013, dated 2016).

For assay [1], the system named is nanTp-nanE intergenic region. Kind of assay: EMSA of NanR with nanTp-nanE intergenic region. Format: binding, Vibrio vulnificus. To be noted: for DNA binding in EMSA: wild-type or mutant NanR. How it is done:
(§1) Purified His-NanR protein was used to raise a primary polyclonal antibody by immunizing European rabbits (Oryctolagus curiculus). First, after one primary injection containing 500 μg of protein, three boosters containing 200 μg of protein was performed at 2-week intervals. Western blotting, EMSA and DNaseI footprinting assays were performed according to typical procedures known in the art.
NanR represses both nan T(PSL)AR and nanEK nagA operons by binding to an operator within the nanTp-nanE intergenic region. To examine the role of R57 and R60 residues in DNA binding, EMSA (electrophoretic gel mobility shift assays), in which the nanTp-nanE intergenic region was incubated with wild-type or mutant NanR in the absence or presence of ManNAc-6P, were performed.
The importance of K188 and K199 residues on all to binding of NanR to DNA was assessed by EMSA. […] Furthermore, the mutants were much more susceptible to ManNAc-6P than wild-type NanR (FIG. 10). […] The transcriptional control region of nan operon interacts with the dimer via the positively charged residues in this space (FIGS. 7b and 7c).

The subject of assay [2] is 32P-labeled transcriptional control region of nan operon. The assay can be described thus: DNaseI footprinting assay. To be noted: 400 nM NanR, 0.1 mM or 1 mM ManNAc-6P. Format: binding, Vibrio vulnificus. How it is done:
as §1
(§2) Therefore, the present inventors hypothesized that binding of ManNAc-6P may alter the conformation of NanR and alleviate its interaction with the transcriptional control region of nan operon. In detail, a DNaseI footprinting assay using NanR protein and ^32P-labeled transcriptional control region of nan operon was performed.

Assay [3] has as its target NanR-binding duplex DNA (transcriptional control region of nan operon). The assay can be described thus: Isothermal titration calorimetry of NanR with NanR-binding duplex DNA. Particulars: for Kd: ITC at 25° C., 0.48 mM protein titrated against 0.03 mM DNA, read-out: dissociation constant (Kd) for target DNA. More on the design: species or system Vibrio vulnificus. How it is done:
NanR-binding duplex DNA (5′-[…] […]-3′, SEQ ID NO:15) was chemically synthesized. NanR was dialyzed extensively against Tris buffer (50 mM Tris-HCl, pH 7.0; 300 mM NaCl) and the DNA was diluted to 0.03 mM in the same buffer. Protein and DNA samples were degassed by vacuum aspiration for 20 minutes prior to loading and titration was carried out at 25° C. The NanR dimer in the syringe (0.48 mM) was titrated against the 0.03 mM DNA sample in the reaction cell. Analysis of the interaction between the NanR/ManNAc-6P complex and the DNA sample was performed using 0.48 mM of complex and 0.03 mM of DNA. The calorimetric assays were performed using a VP-ITC (MicroCal Inc., Northampton, Mass.). The stirring speed was 300 rpm and the thermal power was recorded every 10 seconds. Data were processed and plotted using the Origin program (version 7) supplied with the instrument.
as §2

The test system of the next assay is PnanTp. The assay can be described thus: E. coli dual plasmid system (luciferase reporter fused to PnanTp). To be noted: for repressive effect of NanR on activity of PnanTp: point mutations in DBD. It counts as cell-based. How it is done: E. coli strains were co-transformed with a luciferase reporter plasmid (pBS0915) and one of the pNB-series of plasmids that express NanR. Cells were cultured overnight and then diluted into the appropriate fresh media (supplemented M9 in FIG. 3; LB in FIG. 4) containing arabinose (0.002%), and incubated at 37° C. until cells grew to early exponential phase. Relative luminescence unit (RLU) was calculated by dividing the luminescence by the A600, as described previously. For screening ligand-sensing residues, the BSE1201 strain (ΔaraBAD ΔnanE) was used as the host cell instead of DH5α to ensure that the arabinose was not used as a carbon source and that ManNAc-6P generated from Neu5Ac was accumulated in the cell.
To assess the importance of the interaction between ManNAc-6P and NanR to regulation of the nan genes, the residues involved in ligand-binding were mutated and the impact on NanR function was investigated using an E. coli dual plasmid system. Cells were cotransformed with plasmids containing a luciferase reporter gene fused to the NanR-binding nanT(PSL)AR promoter (PnanTp), and wild-type or mutant NanR, and then incubated in the presence of arabinose and the presence or absence of Neu5Ac.
The simplest helix-turn-helix (HTH)-containing DBD includes three core helices; the HTH domains can form tetra-helical bundle, winged helix, and ribbon-helix-helix type configurations. The DBD of NanR is composed of a six-helix bundle, which is not the archetypal conformation of HTH-containing domains; therefore, the recognition helix required for DNA-binding could not been determined. […] The importance of these residues to DNA-binding was examined using an E. coli dual plasmid system described in Example 2. The repressive effect of wild-type NanR on activity of PnanTp was abolished by the R57A, R57L, R60A, and R60L point mutations (FIG. 4c).

Another assay concerns PnanE. Kind of assay: In vitro transcription assay. Particulars: 100 nM NanR protein, presence or absence of 1 mM ManNAc-6P. Format: biochemical, Vibrio vulnificus. How it is done:
In vitro transcription assays with wild-type or mutant NanR proteins were performed according to procedures described previously. RNA extraction, cDNA synthesis, and real time PCR amplification of the cDNA were performed as described previously.

In the case of `CC(=O)N[C@@H]1C(O)O[C@H](COP(=O)(O)O)[C@@H](O)[C@@H]1O` (some centres unmarked) [ManNAc-6P, N-acetylmannosamine 6-phosphate], the “effect of ManNAc-6P on DNA migration in EMSA” value in assay [1] (addition of ManNAc-6P) is recorded as “retardation of DNA migration”. The “effect of ManNAc-6P on DNaseI protection by NanR” value in assay [2] was “cleavage bands at the center of the NanR-binding site disappeared”.

B1: NanR complexed with ManNAc-6P: complex formed by interaction between NanR protein and ManNAc-6P (protein, UniProt P0A8W0 1-263, looked up)
HTH-type transcriptional …: MGLMNAFDSQTEDSSPAIGRNLRSRPLARKKLSEMVEEELEQMIRRREFGEGEQLPSERELMAFFNVGRPSVREALAALKRKGLVQINNGERARVSRPSADTIIGELSGMAKDFLSHPGGIAHFEQLRLFFESSLVRYAAEHATDEQIDLLAKALEINSQSLDNNAAFIRSDVDFHRVLAEIPGNPIFMAIHVALLDWLIAARPTVTDQALHEHNNVSYQQHIAIVDAIRRHDPDEADRALQSHLNSVSATWHAFGQTTNKKK
modifications: complexed with ManNAc-6P
As for B1, in assay [3], the Kd was 186 µM. Besides, in assay [3] (NanR complexed with ManNAc-6P), the “reduction of interaction affinity for DNA versus NanR dimer” value was 130 fold.

B2: NanR dimer: V. vulnificus transcriptional repressor of the nan operon, SEQ ID NO. 1 (protein, listed as Vibrio vulnificus)
chain: MGSPKNLLVRLRSNMEPFSKKLRVVADYILENAHDVQFQTITDLARNTQTSEATVVRLCRDMGYKGYSDFRMALAVDLSQTESRQQNHIEGDICDVSAQSAVDSLQDTAKLIDRKSLARIVERVHQAEFIGCIGVGASSIVGRYLAYRLIRIGKKAIMFEDTHLAAMSASRSSQGDLWFAVSSSGSTKEVIHAAGLAYKRDIPVVSLTNINHSPLSSLSTEMLVAARPEGPLTGGAFASKVGALLLVDVLVNSLLESYPEYKDSVQETAEVVIPLMAN
modifications: homodimer
On to B2, for which, in assay [3], the Kd is 1.4 µM. The “luciferase activity (PnanTp) after addition of Neu5Ac” value in the assay with PnanTp (BSE1201 host, arabinose, presence or absence of Neu5Ac) was “increased following addition of Neu5Ac”.

B3: R60A: modified NanR protein, Arg60 substituted with alanine (protein)
chain: MGSPKNLLVRLRSNMEPFSKKLRVVADYILENAHDVQFQTITDLARNTQTSEATVVRLCADMGYKGYSDFRMALAVDLSQTESRQQNHIEGDICDVSAQSAVDSLQDTAKLIDRKSLARIVERVHQAEFIGCIGVGASSIVGRYLAYRLIRIGKKAIMFEDTHLAAMSASRSSQGDLWFAVSSSGSTKEVIHAAGLAYKRDIPVVSLTNINHSPLSSLSTEMLVAARPEGPLTGGAFASKVGALLLVDVLVNSLLESYPEYKDSVQETAEVVIPLMAN
On to B3, for which the “DNA binding in EMSA” value in assay [1] is “No DNA migration was detected”. Besides, the “repression of PnanE transcription” value in the assay with PnanE is on record as “did not repress PnanE”. In addition, in the assay on PnanTp, the “repressive effect of NanR on activity of PnanTp” value is listed as “abolished”.

B4: K199A (protein)
chain: MGSPKNLLVRLRSNMEPFSKKLRVVADYILENAHDVQFQTITDLARNTQTSEATVVRLCRDMGYKGYSDFRMALAVDLSQTESRQQNHIEGDICDVSAQSAVDSLQDTAKLIDRKSLARIVERVHQAEFIGCIGVGASSIVGRYLAYRLIRIGKKAIMFEDTHLAAMSASRSSQGDLWFAVSSSGSTKEVIHAAGLAYARDIPVVSLTNINHSPLSSLSTEMLVAARPEGPLTGGAFASKVGALLLVDVLVNSLLESYPEYKDSVQETAEVVIPLMAN
Take B4: the “DNA binding in EMSA” value in assay [1] is “not as conspicuous as that of wild-type NanR”.

B5: K199L (protein)
chain: MGSPKNLLVRLRSNMEPFSKKLRVVADYILENAHDVQFQTITDLARNTQTSEATVVRLCRDMGYKGYSDFRMALAVDLSQTESRQQNHIEGDICDVSAQSAVDSLQDTAKLIDRKSLARIVERVHQAEFIGCIGVGASSIVGRYLAYRLIRIGKKAIMFEDTHLAAMSASRSSQGDLWFAVSSSGSTKEVIHAAGLAYLRDIPVVSLTNINHSPLSSLSTEMLVAARPEGPLTGGAFASKVGALLLVDVLVNSLLESYPEYKDSVQETAEVVIPLMAN
For B5, the “DNA binding in EMSA” value in assay [1] was “not as conspicuous as that of wild-type NanR”.

B6: R57A: modified NanR protein, Arg57 substituted with alanine (protein)
chain: MGSPKNLLVRLRSNMEPFSKKLRVVADYILENAHDVQFQTITDLARNTQTSEATVVALCRDMGYKGYSDFRMALAVDLSQTESRQQNHIEGDICDVSAQSAVDSLQDTAKLIDRKSLARIVERVHQAEFIGCIGVGASSIVGRYLAYRLIRIGKKAIMFEDTHLAAMSASRSSQGDLWFAVSSSGSTKEVIHAAGLAYKRDIPVVSLTNINHSPLSSLSTEMLVAARPEGPLTGGAFASKVGALLLVDVLVNSLLESYPEYKDSVQETAEVVIPLMAN
Regarding B6, the “DNA binding in EMSA” value in assay [1] is “No DNA migration was detected”. Also, the “repression of PnanE transcription” value in the assay on PnanE was “did not repress PnanE”. Also, in the assay with PnanTp, the “repressive effect of NanR on activity of PnanTp” value was “abolished”.
